Results reported in IntAct's records for PubMed 29039417.

B1: Protein PTHB1 (Homo sapiens), Q3SYG4 (parent)
chain: MSLFKARDWWSTILGDKEEFDQGCLCLANVDNSGNGQDKIIVGSFMGYLRIFSPHPAKTGDGAQAEDLLLEVDLRDPVLQVEVGKFVSGTEMLHLAVLHSRKLCVYSVSGTLGNVEHGNQCQMKLMYEHNLQRTACNMTYGSFGGVKGRDLICIQSMDGMLMVFEQESYAFGRFLPGFLLPGPLAYSSRTDSFLTVSSCQQVESYKYQVLAFATDADKRQETEQQKLGSGKRLVVDWTLNIGEQALDICIVSFNQSASSVFVLGERNFFCLKDNGQIRFMKKLDWSPSCFLPYCSVSEGTINTLIGNHNNMLHIYQDVTLKWATQLPHIPVAVRVGCLHDLKGVIVTLSDDGHLQCSYLGTDPSLFQAPNVQSRELNYDELDVEMKELQKIIKDVNKSQGVWPMTEREDDLNVSVVVSPNFDSVSQATDVEVGTDLVPSVTVKVTLQNRVILQKAKLSVYVQPPLELTCDQFTFEFMTPDLTRTVSFSVYLKRSYTPSELEGNAVVSYSRPTDRNPDGIPRVIQCKFRLPLKLICLPGQPSKTASHKITIDTNKSPVSLLSLFPGFASQSDDDQVNVMGFHFLGGARITVLASKTSQRYRIQSEQFEDLWLITNELILRLQEYFEKQGVKDFACSFSGSIPLQEYFELIDHHFELRINGEKLEELLSERAVQFRAIQRRLLARFKDKTPAPLQHLDTLLDGTYKQVIALADAVEENQGNLFQSFTRLKSATHLVILLIALWQKLSADQVAILEAAFLPLQEDTQELGWEETVDAAISHLLKTCLSKSSKEQALNLNSQLNIPKDTSQLKKHITLLCDRLSKGGRLCLSTDAAAPQTMVMPGGCTTIPESDLEERSVEQDSTELFTNHRHLTAETPRPEVSPLQGVSE
partner: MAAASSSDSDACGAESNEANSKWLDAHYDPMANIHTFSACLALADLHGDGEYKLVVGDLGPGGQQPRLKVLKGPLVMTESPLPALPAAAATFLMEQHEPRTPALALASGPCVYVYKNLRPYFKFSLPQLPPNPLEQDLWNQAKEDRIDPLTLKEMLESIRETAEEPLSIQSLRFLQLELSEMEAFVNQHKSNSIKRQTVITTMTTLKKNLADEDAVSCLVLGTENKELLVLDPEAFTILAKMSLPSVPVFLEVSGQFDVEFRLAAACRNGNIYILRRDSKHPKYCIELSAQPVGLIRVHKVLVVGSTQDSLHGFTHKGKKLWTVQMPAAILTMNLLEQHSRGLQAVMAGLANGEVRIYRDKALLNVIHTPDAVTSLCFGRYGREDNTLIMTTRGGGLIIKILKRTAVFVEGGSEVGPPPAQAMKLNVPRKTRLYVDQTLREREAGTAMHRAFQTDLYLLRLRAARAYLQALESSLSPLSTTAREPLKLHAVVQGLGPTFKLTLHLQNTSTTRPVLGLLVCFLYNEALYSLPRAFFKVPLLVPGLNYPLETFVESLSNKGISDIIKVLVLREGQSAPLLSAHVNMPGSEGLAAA

Variants of: B1
Conditions: with bbs1_human BBS1, Q8NFJ9

Effect of a mutation on the interaction, with no effect:
D650A
D650E
D650K
H651A
H651E
H651K
H652A
H652E
H652K
F653A
F653E
F653K
E654A
E654K
L655A
L655E
L655K
R656A
R656E
R656K
I657A
I657E
I657K
N658A
N658E
N658K
G659A
G659E
G659K
E660A
E660K
K661A
K661E
L662A
L662E
L662K
E663A
E663K
E664A
E664K
L665A
L665E
L665K
L666A
L666E
L666K
S667A
S667E
S667K
E668A
E668K
R669A
R669E
R669K
A670E
A670K
V671A
V671E
V671K
Q672A
Q672E
Q672K
F673A
F673E
F673K
R674A
R674E
R674K
A675E
A675K
I676A
I676E
I676K
Q677A
Q677E
Q677K
R678A
R678E
R678K
R679A
R679E
R679K
L680A
L680E

Effect of a mutation on the interaction, disrupting interaction strength:
H651T
E654G
S667F
A670V
R674P
Q677Y
R679W
